Assay results published in patent publication US20260167699A1 (Chugai, published 2026).
One block for each binder: values may come before it.

Assays:
FcγRIIIa = target: T1, FcγRIIIa (human, UniProt P08637 17-208); assay: SPR (Biacore);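 further: antibody variants captured on an SPR sensor chip, with FcγRIIIa passed over as analyte in HBS-EP+ buffer at 25 °C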
T1 construct: extracellular domain; also called 3a; FcγRIIIa extracellular domain

[1] = target: T2, FcγRIIIa extracellular domain, C-terminal His tag (human, UniProt P08637 17-208); assay: SPR, binding activity relative to GpH7-A5/GpH7-B3/GpL16-k0 (=100)
T2 construct: extracellular domain; also called 3a
T2 sequence (P08637 other isoform, or with tags, fused parts or gaps): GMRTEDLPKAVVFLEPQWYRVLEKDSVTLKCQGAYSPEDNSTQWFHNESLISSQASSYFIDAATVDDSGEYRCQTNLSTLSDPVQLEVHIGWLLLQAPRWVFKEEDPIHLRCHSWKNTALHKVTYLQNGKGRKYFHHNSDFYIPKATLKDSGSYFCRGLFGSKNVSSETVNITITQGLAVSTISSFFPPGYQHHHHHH

T1 sequence (P08637 other isoform, or with tags, fused parts or gaps): as above

- He/Con 3a (FcγRIIIa): 53.3 % of GpH7-A5/GpH7-B3/GpL16-k0
B1: GpH7-A5/GpH7-B3 variant Y296_11K/GpL16-k0 (antibody, human IgG1, kappa)
heavy 1: not shown
heavy 2: not shown
light: DIVMTQSPLSLPVTPGEPASISCQASESLVHSNRNTYLHWYLQKPGQSPQLLIYKVSNRFSGVPDRFSGSGSGTDFTLKISRVEAEDVGVYYCSQNTHVPPTFGQGTKVEIERTVAAPSVFIFPPSDEQLKSGTASVVCLLNNFYPREAKVQWKVDNALQSGNSQESVTEQDSKDSTYSLSSTLTLSKADYEKHKVYACEVTHQGLSSPVTKSFNRGEC
notes: copies: 1 + 1 + 2

- He/Con 3a [1]: 52.6%
B2: GpH7-A5/GpH7-B3 variant A327_20W/GpL16-k0 (antibody, human IgG1, kappa)
heavy 1: not shown
heavy 2: not shown
light: B1 light
notes: He Ab; copies: 1 + 1 + 2

- He/Con 3a [1]: 144%
B3: GpH7-A5/GpH7-B3 variant A330_04F/GpL16-k0 (antibody, human IgG1, kappa)
heavy 1: not shown
heavy 2: not shown
light: B1 light
notes: He Ab; copies: 1 + 1 + 2

- He/Con 3a (FcγRIIIa): 127 % of GpH7-A5/GpH7-B3/GpL16-k0
B4: GpH7-A5/GpH7-B3 variant Y296_20W/GpL16-k0 (antibody, human IgG1, kappa)
heavy 1: not shown
heavy 2: not shown
light: B1 light
notes: copies: 1 + 1 + 2

- He/Con 3a (FcγRIIIa): 99.3 % of GpH7-A5/GpH7-B3/GpL16-k0
B5: GpH7-A5/GpH7-B3 variant T335_16H/GpL16-k0 (antibody, human IgG1, kappa)
heavy 1: not shown
heavy 2: not shown
light: B1 light
notes: copies: 1 + 1 + 2

- He/Con 3a [1]: 70.5%
B6: GpH7-A5/GpH7-B3 variant A327_10E/GpL16-k0 (antibody, human IgG1, kappa)
heavy 1: not shown
heavy 2: not shown
light: B1 light
notes: He Ab; copies: 1 + 1 + 2

- He/Con 3a (FcγRIIIa): 66.3 % of GpH7-A5/GpH7-B3/GpL16-k0
B7: GpH7-A5/GpH7-B3 variant Y296_02A/GpL16-k0 (antibody, human IgG1, kappa)
heavy 1: not shown
heavy 2: not shown
light: B1 light
notes: copies: 1 + 1 + 2

- He/Con 3a (FcγRIIIa): 63.7 % of GpH7-A5/GpH7-B3/GpL16-k0
B8: GpH7-A5/GpH7-B3 variant Y300_11K/GpL16-k0 (antibody, human IgG1, kappa)
heavy 1: not shown
heavy 2: not shown
light: B1 light
notes: copies: 1 + 1 + 2

- He/Con 3a (FcγRIIIa): 58.1 % of GpH7-A5/GpH7-B3/GpL16-k0
B9: GpH7-A5/GpH7-B3 variant Y296_13S/GpL16-k0 (antibody, human IgG1, kappa)
heavy 1: not shown
heavy 2: not shown
light: B1 light
notes: copies: 1 + 1 + 2

- He/Con 3a (FcγRIIIa): 106 % of GpH7-A5/GpH7-B3/GpL16-k0
B10: GpH7-A5/GpH7-B3 variant Y300_06M/GpL16-k0 (antibody, human IgG1, kappa)
heavy 1: not shown
heavy 2: not shown
light: B1 light
notes: copies: 1 + 1 + 2

- He/Con 3a (FcγRIIIa): 71.4 % of GpH7-A5/GpH7-B3/GpL16-k0
B11: GpH7-A5/GpH7-B3 variant Y296_19Q/GpL16-k0 (antibody, human IgG1, kappa)
heavy 1: not shown
heavy 2: not shown
light: B1 light
notes: copies: 1 + 1 + 2

- He/Con 3a (FcγRIIIa): 91.7 % of GpH7-A5/GpH7-B3/GpL16-k0
B12: GpH7-A5/GpH7-B3 variant T335_11K/GpL16-k0 (antibody, human IgG1, kappa)
heavy 1: not shown
heavy 2: not shown
light: B1 light
notes: copies: 1 + 1 + 2

- He/Con 3a (FcγRIIIa): 92.8 % of GpH7-A5/GpH7-B3/GpL16-k0
B13: GpH7-A5/GpH7-B3 variant Y300_14T/GpL16-k0 (antibody, human IgG1, kappa)
heavy 1: not shown
heavy 2: not shown
light: B1 light
notes: copies: 1 + 1 + 2

- He/Con 3a (FcγRIIIa): 97.7 % of GpH7-A5/GpH7-B3/GpL16-k0
B14: GpH7-A5/GpH7-B3 variant T335_19Q/GpL16-k0 (antibody, human IgG1, kappa)
heavy 1: not shown
heavy 2: not shown
light: B1 light
notes: copies: 1 + 1 + 2

- He/Con 3a (FcγRIIIa): 104 % of GpH7-A5/GpH7-B3/GpL16-k0
B15: GpH7-A5/GpH7-B3 variant Y300_09D/GpL16-k0 (antibody, human IgG1, kappa)
heavy 1: not shown
heavy 2: not shown
light: B1 light
notes: copies: 1 + 1 + 2

- He/Con 3a [1]: 62.8%
B16: GpH7-A5/GpH7-B3 variant A327_18N/GpL16-k0 (antibody, human IgG1, kappa)
heavy 1: not shown
heavy 2: not shown
light: B1 light
notes: He Ab; copies: 1 + 1 + 2

- He/Con 3a [1]: 101%
B17: GpH7-A5/GpH7-B3 variant A330_07I/GpL16-k0 (antibody, human IgG1, kappa)
heavy 1: not shown
heavy 2: not shown
light: B1 light
notes: He Ab; copies: 1 + 1 + 2

- He/Con 3a (FcγRIIIa): 56.8 % of GpH7-A5/GpH7-B3/GpL16-k0
B18: GpH7-A5/GpH7-B3 variant V266_02A/GpL16-k0 (antibody, human IgG1, kappa)
heavy 1: not shown
heavy 2: not shown
light: B1 light
notes: copies: 1 + 1 + 2

- He/Con 3a (FcγRIIIa): 72.4 % of GpH7-A5/GpH7-B3/GpL16-k0
B19: GpH7-A5/GpH7-B3 variant Y296_08L/GpL16-k0 (antibody, human IgG1, kappa)
heavy 1: not shown
heavy 2: not shown
light: B1 light
notes: copies: 1 + 1 + 2

- He/Con 3a (FcγRIIIa): 96 % of GpH7-A5/GpH7-B3/GpL16-k0
B20: GpH7-A5/GpH7-B3 variant Y300_18N/GpL16-k0 (antibody, human IgG1, kappa)
heavy 1: not shown
heavy 2: not shown
light: B1 light
notes: copies: 1 + 1 + 2

- He/Con 3a (FcγRIIIa): 88.1 % of GpH7-A5/GpH7-B3/GpL16-k0
B21: GpH7-A5/GpH7-B3 variant Y300_02A/GpL16-k0 (antibody, human IgG1, kappa)
heavy 1: not shown
heavy 2: not shown
light: B1 light
notes: copies: 1 + 1 + 2

- He/Con 3a (FcγRIIIa): 75.8 % of GpH7-A5/GpH7-B3/GpL16-k0
B22: GpH7-A5/GpH7-B3 variant Y296_07I/GpL16-k0 (antibody, human IgG1, kappa)
heavy 1: not shown
heavy 2: not shown
light: B1 light
notes: copies: 1 + 1 + 2

- He/Con 3a (FcγRIIIa): 76.8 % of GpH7-A5/GpH7-B3/GpL16-k0
B23: GpH7-A5/GpH7-B3 variant Y296_10E/GpL16-k0 (antibody, human IgG1, kappa)
heavy 1: not shown
heavy 2: not shown
light: B1 light
notes: copies: 1 + 1 + 2

- He/Con 3a [1]: 139%
B24: GpH7-A5/GpH7-B3 variant A330_06M/GpL16-k0 (antibody, human IgG1, kappa)
heavy 1: not shown
heavy 2: not shown
light: B1 light
notes: He Ab; copies: 1 + 1 + 2

- He/Con 3a (FcγRIIIa): 103 % of GpH7-A5/GpH7-B3/GpL16-k0
B25: GpH7-A5/GpH7-B3 variant Y300_07I/GpL16-k0 (antibody, human IgG1, kappa)
heavy 1: not shown
heavy 2: not shown
light: B1 light
notes: copies: 1 + 1 + 2

- He/Con 3a (FcγRIIIa): 83.8 % of GpH7-A5/GpH7-B3/GpL16-k0
B26: GpH7-A5/GpH7-B3 variant Y300_03V/GpL16-k0 (antibody, human IgG1, kappa)
heavy 1: not shown
heavy 2: not shown
light: B1 light
notes: copies: 1 + 1 + 2

- He/Con 3a (FcγRIIIa): 69.1 % of GpH7-A5/GpH7-B3/GpL16-k0
B27: GpH7-A5/GpH7-B3 variant Y296_03V/GpL16-k0 (antibody, human IgG1, kappa)
heavy 1: not shown
heavy 2: not shown
light: B1 light
notes: copies: 1 + 1 + 2

- He/Con 3a (FcγRIIIa): 99.7 % of GpH7-A5/GpH7-B3/GpL16-k0
B28: GpH7-A5/GpH7-B3 variant T335_15Y/GpL16-k0 (antibody, human IgG1, kappa)
heavy 1: not shown
heavy 2: not shown
light: B1 light
notes: copies: 1 + 1 + 2

- He/Con 3a [1]: 66.7%
B29: GpH7-A5/GpH7-B3 variant A327_13S/GpL16-k0 (antibody, human IgG1, kappa)
heavy 1: not shown
heavy 2: not shown
light: B1 light
notes: He Ab; copies: 1 + 1 + 2

- He/Con 3a (FcγRIIIa): 66.5 % of GpH7-A5/GpH7-B3/GpL16-k0
B30: GpH7-A5/GpH7-B3 variant Y296_12R/GpL16-k0 (antibody, human IgG1, kappa)
heavy 1: not shown
heavy 2: not shown
light: B1 light
notes: copies: 1 + 1 + 2
